Source: US20260028422A1 (CONCEPT TO MEDICINE BIOTECH, published 2026)
Positions count from the first letter of the chain named. Like-named read-outs stand apart in the source and are kept apart here.

What was measured:
[1] = biological target: T1, human MerTK-his protein (human, UniProt Q12866 21-505); test: ELISA, plate coated with human MerTK-his, OD 450nm
T1 construct: extracellular domain; also called hMerTK-His; human MerTK protein
T1 sequence (looked up): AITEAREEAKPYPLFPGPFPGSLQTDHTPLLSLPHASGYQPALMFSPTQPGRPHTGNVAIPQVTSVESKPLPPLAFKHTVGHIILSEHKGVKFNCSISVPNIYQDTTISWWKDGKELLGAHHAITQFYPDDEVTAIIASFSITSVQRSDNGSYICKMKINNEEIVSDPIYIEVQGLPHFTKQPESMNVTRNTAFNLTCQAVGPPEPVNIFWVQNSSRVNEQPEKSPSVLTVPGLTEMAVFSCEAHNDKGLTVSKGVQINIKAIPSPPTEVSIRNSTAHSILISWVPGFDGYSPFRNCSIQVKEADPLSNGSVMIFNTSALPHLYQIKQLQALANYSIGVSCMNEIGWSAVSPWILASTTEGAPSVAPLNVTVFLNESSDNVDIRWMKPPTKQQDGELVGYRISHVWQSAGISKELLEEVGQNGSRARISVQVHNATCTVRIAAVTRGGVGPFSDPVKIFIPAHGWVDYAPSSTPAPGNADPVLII
Protocol: (§1) To evaluate the binding activity, the chimeric mAbs were subjected to ELISA test. Briefly, 96-well plates were coated with human or cyno MerTK-his protein at 2 μg/mL in PBS, 100 μL/well at 4° C. overnight, then blocked with 150 μL/well of 1% BSA. Five-fold dilutions of MerTK antibodies starting from 20 nM were added to each well and incubated for 1 hour at room temperature. The plates were washed with PBS/Tween-20 and then incubated with goat anti-human IgG Fe antibody conjugated with Horse Radish Peroxidase (HRP) for 30 minutes (mins) at room temperature. After washing, the plates were developed with TMB substrate and subsequent stop solution was added to complete the reaction. The signal from each well was read by spectrophotometer at OD 450 nm.
(§2) To evaluate the antigen binding activity, the humanized antibodies were subjected to ELISA test as described before.

[2] = biological target: T2, human MerTK expressed on cells (human, UniProt Q12866 21-999); test: FACS on CHO-K1 cells overexpressing human MerTK, MFI (PE)
T2 construct: whole, on cells; also called CHO-K1-hMerTK; CHO-K1-MerTK
T2 sequence (looked up): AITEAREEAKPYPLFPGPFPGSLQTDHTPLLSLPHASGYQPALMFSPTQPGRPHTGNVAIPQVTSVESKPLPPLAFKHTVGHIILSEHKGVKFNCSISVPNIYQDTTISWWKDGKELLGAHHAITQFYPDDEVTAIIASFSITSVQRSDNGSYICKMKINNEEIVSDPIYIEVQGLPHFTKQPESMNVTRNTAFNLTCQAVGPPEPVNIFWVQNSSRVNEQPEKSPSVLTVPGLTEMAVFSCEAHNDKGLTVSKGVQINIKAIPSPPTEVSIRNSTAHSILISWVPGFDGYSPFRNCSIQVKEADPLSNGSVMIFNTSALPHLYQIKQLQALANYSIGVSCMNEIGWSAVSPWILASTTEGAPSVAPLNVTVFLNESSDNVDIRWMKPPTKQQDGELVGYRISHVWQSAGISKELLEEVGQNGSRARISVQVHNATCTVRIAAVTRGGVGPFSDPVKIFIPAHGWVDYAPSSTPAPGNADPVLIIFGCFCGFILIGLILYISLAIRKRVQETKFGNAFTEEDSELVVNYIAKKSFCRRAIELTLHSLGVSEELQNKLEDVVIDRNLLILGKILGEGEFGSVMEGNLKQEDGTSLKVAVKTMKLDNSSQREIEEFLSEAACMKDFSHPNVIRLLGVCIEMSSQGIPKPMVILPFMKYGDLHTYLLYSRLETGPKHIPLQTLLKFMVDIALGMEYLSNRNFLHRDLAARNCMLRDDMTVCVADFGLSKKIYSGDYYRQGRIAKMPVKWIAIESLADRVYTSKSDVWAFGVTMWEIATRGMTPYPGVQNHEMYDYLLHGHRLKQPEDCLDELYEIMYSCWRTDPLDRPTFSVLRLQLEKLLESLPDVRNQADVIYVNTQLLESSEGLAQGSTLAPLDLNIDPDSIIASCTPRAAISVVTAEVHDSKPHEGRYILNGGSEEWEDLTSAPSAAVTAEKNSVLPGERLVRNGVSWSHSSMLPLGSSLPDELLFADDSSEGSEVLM
Protocol: To evaluate the binding property to the antigen expressed on the cells, the chimeric monoclonal antibodies were analyzed for their binding to human MerTK overexpressed on CHO-K1 cells by FACS. Briefly, human MerTK overexpressing CHO-K1 (CHO-K1-MerTK) cells were firstly incubated with 5-fold serially diluted mAbs starting at 20 nM at 4° C. for 1 hour. After washing with FACS buffer, the PE conjugated anti-human IgG-Fc secondary antibody was added to each well and incubated at 4° C., for 30 mins. The mean fluorescence intensity (MFI) of PE were evaluated by QuantAnalyzer 16.
To evaluate the binding property to the antigen expressed on the cells, the humanized antibodies were analyzed by FACS as described before.

[3] = biological target: T1, human MerTK-his protein; test: SPR Biacore 8K, antibody captured on Protein A chip, 50 nM antigen
Protocol: To explore whether the humanized antibodies could maintain their binding kinetics, affinity ranking were performed with Biacore™. The antibodies were captured with a Protein A chips. Human MerTK-his protein at 50 nM was injected over captured antibodies for 180 s at a flow rate of 30 μL/min. The antigen was allowed to dissociate for 600 s. The experiment was carried out on a Biacore™ 8K. Data analysis was carried out using Biacore™ 8K evaluation software.

[4] = biological target: T2, human MerTK expressed on cells; test: FACS on CHO-K1 cells overexpressing human MerTK, MFI (AF488)
[5] = biological target: T2, human MerTK expressed on cells; test: as above; remark: listed apart in the source
[6] = biological target: T1, human MerTK-his protein; test: ELISA, plate coated with human MerTK-his, OD 450nm; remark: listed apart in the source
Protocol: as §1, §2

B1: 10F7D9 Hu-2 (antibody, V domains shown)
VH: QIQLVQSGSELKKPGASVKVSCKASGYTFTNYGMNWVRQAPGQGLEWMGWINTYTGEPTYADDFKGRFVFSLDTSVSTAYLQISSLKAEDTAVYYCATYGHYAWFAYWGQGTLVTVSS
VL: EIVLTQSPDFQSVTPKEKVTITCRASSSVSYMHWYQQKPDQSPKLLIKATSNLASGVPSRFSGSGSGTDFTLTINSLEAEDAATYYCQQWGTKPLTFGQGTKLEIK
notes: also called Hu-2 of 10F7D9
Binder B1 has an EC50 [1] of 0.035 nM and an EC50 [2] of 0.45 nM.

B2: 10F7D9 Hu-8 (antibody, V domains shown)
VH: B1 VH
VL: B1 VL with L45P, L46W
notes: also called Hu-8 of 10F7D9
B2 was tested, and the EC50 [1] was 0.0024 nM and the EC50 [2] was 0.1 nM.

B3: 10F7D9 Hu-3 (antibody, V domains shown)
VH: B1 VH with Y95F
VL: B1 VL
notes: also called Hu-3 of 10F7D9
B3 was tested, and the EC50 [1] was 0.034 nM and the EC50 [2] was 1.2 nM.

B4: 10F7D9 Hu-1 (antibody, V domains shown)
VH: B1 VH with I2V, T98R
VL: B1 VL
notes: also called Hu-1 of 10F7D9
Binder B4 has an EC50 [1] of 0.028 nM and an EC50 [2] of 0.29 nM.

B5: 10F7D9 Hu-14 (antibody, V domains shown)
VH: B1 VH
VL: B1 VL with L45P, L46W, K48Y, Y86F
notes: also called Hu-14 of 10F7D9
B5 gave an EC50 [1] of 0.027 nM and an EC50 [2] of 0.15 nM.

B6: 10F7D9 Hu-6 (antibody, V domains shown)
VH: B1 VH with I2V, V20I, S84N, S85N, Y95F
VL: B1 VL
notes: also called Hu-6 of 10F7D9
Binder B6 has an EC50 [1] of 0.033 nM and an EC50 [2] of 0.45 nM.

B7: 10F7D9 Hu-4 (antibody, V domains shown)
VH: B1 VH with E46K, Y95F
VL: B1 VL
notes: also called Hu-4 of 10F7D9
B7 showed an EC50 [1] of 0.027 nM and an EC50 [2] of 0.47 nM.

B8: 265F11B5Hu-6 (antibody, V domains shown)
VH: QVQLVQSGAEVKKPGASVKVSCKASGYTFTTYDINWVRQAPGQGLEWMGWIYPRDGYTKYNEKFKGRVTMTTDTSTSTAYMELRSLRSDDTAVYYCTRGYYDNLYYFDYWGQGTTVTVSS
VL: EIVLTQSPDFQSVTPKEKVTITCSASSIISSNYFHWYQQKPDQSPKLLIKRTSNLASGVPSRFSGSGSGTDYTLTINSLEAEDAATYYCQQGRSVPLTFGQGTKLEIK
In the case of B8, the EC50 [1] is reported as 0.044 nM, the Kd [3] is reported as 1.4 nM and the koff [3] is reported as 0.000278 s⁻¹. The kon [3] was 199000 M⁻¹ s⁻¹ and the EC50 [4] was 0.17 nM.

B9: 265F11B5Hu-10 (antibody, V domains shown)
VH: B8 VH
VL: B8 VL with K50Y
B9 gave an EC50 [1] of 0.045 nM, a Kd [3] of 2.52 nM and a koff [3] of 0.000463 s⁻¹. The kon [3] was 184000 M⁻¹ s⁻¹ and the EC50 [4] was 0.19 nM.

B10: 265F11B5Hu-3 (antibody, V domains shown)
VH: B8 VH with M48I, V68A, Y95F
VL: B8 VL with Y72F
B10 showed an EC50 [1] of 0.06 nM, a Kd [3] of 1.02 nM and a koff [3] of 0.000204 s⁻¹. It also gave a kon [3] of 199000 M⁻¹ s⁻¹ and an EC50 [4] of 0.22 nM.

B11: 265F11B5Hu-4 (antibody, V domains shown)
VH: B8 VH with M48I, V68A, M70L, T71A, T72V, Y95F
VL: B8 VL with Y72F
For B11, the EC50 [1] was 0.068 nM, the Kd [3] was 0.856 nM and the koff [3] was 0.000172 s⁻¹. It also gave a kon [3] of 201000 M⁻¹ s⁻¹ and an EC50 [4] of 0.13 nM.

B12: 265F11B5Hu-5 (antibody, V domains shown)
VH: B8 VH with T97A
VL: B8 VL
For B12, the EC50 [1] was 0.062 nM, the Kd [3] was 1.16 nM and the koff [3] was 0.000232 s⁻¹. It also gave a kon [3] of 200000 M⁻¹ s⁻¹ and an EC50 [4] of 0.17 nM.

B13: 265F11B5Hu-8 (antibody, V domains shown)
VH: B8 VH with M48I, V68A, M70L, T71A, T72V, Y95F
VL: B8 VL
In the case of B13, the EC50 [1] is reported as 0.037 nM, the Kd [3] is reported as 0.174 nM and the koff [3] is reported as 3.95e-05 s⁻¹. It also gave a kon [3] of 227000 M⁻¹ s⁻¹ and an EC50 [4] of 0.14 nM.

B14: 265F11B5Hu-2 (antibody, V domains shown)
VH: B8 VH
VL: B8 VL with Y72F
With B14 the EC50 [1] was 0.054 nM, the Kd [3] was 1.27 nM and the koff [3] was 0.00025 s⁻¹. It also gave a kon [3] of 197000 M⁻¹ s⁻¹ and an EC50 [4] of 0.14 nM.

B15: 265F11B5Hu-9 (antibody, V domains shown)
VH: B8 VH with T97A
VL: B8 VL with K50Y
B15 gave an EC50 [1] of 0.059 nM, a Kd [3] of 2.17 nM and a koff [3] of 0.000443 s⁻¹. For the same binder, the kon [3] was 204000 M⁻¹ s⁻¹ and the EC50 [4] was 0.19 nM.

B16: 265F11B5Hu-1 (antibody, V domains shown)
VH: B8 VH with T97A
VL: B8 VL with Y72F
B16 gave an EC50 [1] of 0.042 nM, a Kd [3] of 1.15 nM and a koff [3] of 0.000232 s⁻¹. The kon [3] was 201000 M⁻¹ s⁻¹ and the EC50 [4] was 0.16 nM.

B17: 265F11B5Hu-7 (antibody, V domains shown)
VH: B8 VH with M48I, V68A, Y95F
VL: B8 VL
With B17 the EC50 [1] was 0.021 nM, the Kd [3] was 0.719 nM and the koff [3] was 0.000155 s⁻¹. It also gave a kon [3] of 216000 M⁻¹ s⁻¹ and an EC50 [4] of 0.14 nM.

B18: 265F11B5Hu-11 (antibody, V domains shown)
VH: B8 VH with M48I, V68A, Y95F
VL: B8 VL with K50Y
B18 was tested, and the Kd [3] was 1.94 nM, the koff [3] was 0.000378 s⁻¹ and the kon [3] was 195000 M⁻¹ s⁻¹. The EC50 [5] was 0.22 nM and the EC50 [6] was 0.042 nM.
